Measurements reported in paper PMC3858243.
pKd: −log10 of the molar value.

Tested on: 30S ribosomal subunit (with S1)
Assay: filter binding
Details: no initiator tRNA; Not given in the material for EMSA, SPR and filter binding (buffer with monovalent ions and MgCl2; RNA renatured 90°C 1 min, ice, then 25°C 30 min)

rpsO mRNA
pKd: 6.00

rpsOSD mRNA
binding signal (fold higher affinity than WT rpsO): 5

sodB mRNA
pKd: 6.00

thrS mRNA
pKd: 6.00

thrSSD mRNA
binding signal (fold higher affinity than WT thrS): 5
